Experimental data taken from article PMC9363427, “The SWI/SNF chromatin remodeling factor DPF3 regulates metastasis of ccRCC by modulating TGF-β signaling” (Nature Communications, 2022).

B1: Recombinant full-length DPF3a, GST tag removed (natural protein, human, UniProt Q92784-2 1-357, looked up)
chain: MATVIHNPLKALGDQFYKEAIEHCRSYNSRLCAERSVRLPFLDSQTGVAQNNCYIWMEKRHRGPGLAPGQLYTYPARCWRKKRRLHPPEDPKLRLLEIKPEVELPLKKDGFTSESTTLEALLRGEGVEKKVDAREEESIQEIQRVLENDENVEEGNEEEDLEEDIPKRKNRTRGRARGSAGGRRRHDAASQEDHDKPYVCDICGKRYKNRPGLSYHYAHTHLASEEGDEAQDQETRSPPNHRNENHRPQKGPDGTVIPNNYCDFCLGGSNMNKKSGRPEELVSCADCGRSAHLGGEGRKEKEAAAAARTTEDLFGSTSESDTSTFHGFDEDDLEEPRSCRGRRSGRGSPTADKKGSC
notes: Zinc finger protein DPF3, isoform DPF3a, cDNA subcloned into pGEX-6P-1; Expressed with 0.1 mM ZnSO4; also called DPF3a-FL; full-length DPF3a proteins; source: E. coli BL21 (DE3)-RIL, purified (Glutathione Sepharose 4B, 3C protease, Superdex 200)

Key:
[1] = target: T1, GST-tagged full-length SNIP1 (recombinant) (human, UniProt Q8TAD8 1-396); assay: pull-down; 1.5 nmol GST-tagged DPF3a or SNIP1 construct on Glutathione Sepharose 4B beads, 2 nmol SNIP1 1-240 or full-length DPF3a added, 4 °C 2 h; 20 mM Tris pH 7.5, 100 mM NaCl, 5 mM β-mercaptomethanol; washes with 0.5% Triton X-100; SDS-PAGE; conditions: both partners purified
T1 construct: also called SNIP1-FL; source: E. coli BL21 (DE3)-RIL, purified (Glutathione Sepharose 4B, Superdex 200)
T1 sequence (looked up): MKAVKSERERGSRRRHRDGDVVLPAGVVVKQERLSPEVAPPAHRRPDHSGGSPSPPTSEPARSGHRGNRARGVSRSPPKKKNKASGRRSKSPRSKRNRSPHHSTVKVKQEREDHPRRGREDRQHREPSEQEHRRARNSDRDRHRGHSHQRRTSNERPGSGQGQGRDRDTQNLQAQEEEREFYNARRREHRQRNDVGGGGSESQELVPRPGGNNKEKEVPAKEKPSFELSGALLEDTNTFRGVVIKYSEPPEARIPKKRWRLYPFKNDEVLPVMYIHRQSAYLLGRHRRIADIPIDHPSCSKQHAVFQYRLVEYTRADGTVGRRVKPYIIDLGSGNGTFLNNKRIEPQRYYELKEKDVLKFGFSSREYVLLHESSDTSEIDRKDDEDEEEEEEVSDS

[2] = target: B1; assay: as above; conditions: both partners purified

## B1
[1]
  binding result: binds

B2: GST-tagged SNIP1 N-terminus (1-240) (recombinant) (domain or fragment, human, UniProt Q8TAD8 1-240, looked up)
chain: MKAVKSERERGSRRRHRDGDVVLPAGVVVKQERLSPEVAPPAHRRPDHSGGSPSPPTSEPARSGHRGNRARGVSRSPPKKKNKASGRRSKSPRSKRNRSPHHSTVKVKQEREDHPRRGREDRQHREPSEQEHRRARNSDRDRHRGHSHQRRTSNERPGSGQGQGRDRDTQNLQAQEEEREFYNARRREHRQRNDVGGGGSESQELVPRPGGNNKEKEVPAKEKPSFELSGALLEDTNTFR
notes: also called SNIP1-IDR; source: E. coli BL21 (DE3)-RIL, purified (Glutathione Sepharose 4B, Superdex 200)
[2]
  binding result: binds
